Substitutions are numbered along the chain they refer to. Numbered stars: 1 amine (or outer) side, 2 acyl side, 3 side chain; on linkers, the order of the positions; unused ones are H or OH. Bridge positions count the residues as written; N and C are the ends. Side chains are listed from the residue outwards. Ends that are not written are not given here. * marks the point of attachment. C20 diacid = O=C(O)CCCCCCCCCCCCCCCCCCC(=O)*; γGlu = O=C(O)[C@H](CCC(=O)[*:2])N[*:1]; AEEA = NCCOCCOCC(=O)O
T1: rat calcitonin receptor (rat, UniProt P32214 25-516)
T1 construct: whole, on cells; membranes of transiently transfected BHK tk'ts 13 cells (Assay VIII); also called rCTR; rat calcitonin (a) receptor
T1 sequence (looked up): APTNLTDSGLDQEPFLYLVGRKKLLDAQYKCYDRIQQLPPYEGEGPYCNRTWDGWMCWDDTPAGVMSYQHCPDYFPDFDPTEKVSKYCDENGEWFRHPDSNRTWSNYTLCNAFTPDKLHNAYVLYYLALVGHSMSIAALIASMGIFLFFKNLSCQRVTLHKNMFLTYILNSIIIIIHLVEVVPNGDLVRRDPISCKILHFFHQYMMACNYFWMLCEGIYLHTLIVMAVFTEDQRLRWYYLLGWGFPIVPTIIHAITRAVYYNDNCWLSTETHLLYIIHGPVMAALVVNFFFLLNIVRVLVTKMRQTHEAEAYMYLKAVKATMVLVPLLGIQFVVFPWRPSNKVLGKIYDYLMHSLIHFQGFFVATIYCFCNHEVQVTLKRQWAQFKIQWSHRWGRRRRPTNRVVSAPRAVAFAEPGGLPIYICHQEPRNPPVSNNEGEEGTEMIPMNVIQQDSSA

T2: human calcitonin receptor (human, UniProt P30988 25-474)
T2 sequence (looked up): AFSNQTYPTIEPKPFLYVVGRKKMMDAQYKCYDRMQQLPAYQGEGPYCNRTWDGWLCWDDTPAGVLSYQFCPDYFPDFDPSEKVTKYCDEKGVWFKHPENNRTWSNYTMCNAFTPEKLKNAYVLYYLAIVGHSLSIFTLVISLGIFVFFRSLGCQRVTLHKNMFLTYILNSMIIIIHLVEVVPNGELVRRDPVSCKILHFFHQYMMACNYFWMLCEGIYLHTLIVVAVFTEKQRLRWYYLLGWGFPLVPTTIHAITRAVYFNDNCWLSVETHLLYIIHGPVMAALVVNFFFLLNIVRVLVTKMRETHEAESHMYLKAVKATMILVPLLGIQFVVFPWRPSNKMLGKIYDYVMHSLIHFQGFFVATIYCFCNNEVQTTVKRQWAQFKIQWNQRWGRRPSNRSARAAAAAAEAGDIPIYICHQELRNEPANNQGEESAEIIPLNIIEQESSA

T3: human amylin 3(a) receptor (human calcitonin receptor plus RAMP-3) (human, UniProt P30988 25-474; O60896 24-148, limits assumed)
T3 sequence (looked up) 1: T2 sequence (looked up)
T3 sequence (looked up) 2: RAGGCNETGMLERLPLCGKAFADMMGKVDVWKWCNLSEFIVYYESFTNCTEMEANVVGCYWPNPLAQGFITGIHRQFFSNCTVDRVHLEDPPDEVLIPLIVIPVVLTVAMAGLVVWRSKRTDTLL

T4: human calcitonin receptor (human, UniProt P30988 25-474)
T4 sequence (looked up): T2 sequence (looked up)

T5: rat amylin receptor (rat calcitonin receptor + rat RAMP 3) (rat, UniProt P32214 25-516; Q9JJ73 23-147)
T5 construct: whole, on cells; membranes of transiently transfected BHK tk'ts 13 cells (Assay VI); also called rAmylin-R; rat amylin 3(a) receptor
T5 sequence (looked up) 1: T1 sequence (looked up)
T5 sequence (looked up) 2: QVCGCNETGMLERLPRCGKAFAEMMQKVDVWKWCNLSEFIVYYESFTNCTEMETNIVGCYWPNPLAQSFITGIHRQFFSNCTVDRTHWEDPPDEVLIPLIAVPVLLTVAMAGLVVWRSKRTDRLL

B1: N^ε1-[2-[2-[2-[[(4S)-4-carboxy-4-(19-carboxynonadecanoylamino)butanoyl]amino]ethoxy]ethoxy]acetyl]-[Arg17,Pro21,Pro27,Arg35]-h-amylin (peptide)
peptide: K([AEEA-γGlu-C20 diacid])CNTATCATQRLANFLRHSSPNFGAIPSSTNVGSRTY-NH2
modifications: disulfide 2-7 (inferred)
notes: analogue of human amylin; also called compound 38
B2: N^ε1-[(4S)-4-carboxy-4-[[(4S)-4-carboxy-4-(19-carboxynonadecanoylamino)butanoyl]amino]butanoyl]-[Asp14,Arg17,Pro21,Pro27,Arg35]-h-amylin (peptide)
peptide: K([γGlu-γGlu-C20 diacid])CNTATCATQRLADFLRHSSPNFGAIPSSTNVGSRTY-NH2
modifications: disulfide 2-7 (inferred)
notes: analogue of human amylin; also called compound 52
B3: N^α1 N^α1-[(4S)-4-carboxy-4-[[(4S)-4-carboxy-4-(19-carboxynonadecanoylamino)butanoyl]amino]butanoyl]-[Glu14,Arg17,Pro21,Pro27]-h-amylin (peptide)
peptide: {C20 diacid-γGlu-γGlu}-KCNTATCATQRLAEFLRHSSPNFGAIPSSTNVGSNTY-NH2
modifications: disulfide 2-7
SMILES: CC[C@H](C)[C@H](NC(=O)[C@H](C)NC(=O)CNC(=O)[C@H](Cc1ccccc1)NC(=O)[C@H](CC(N)=O)NC(=O)[C@@H]1CCCN1C(=O)[C@H](CO)NC(=O)[C@H](CO)NC(=O)[C@H](Cc1c[nH]cn1)NC(=O)[C@H](CCCNC(=N)N)NC(=O)[C@H](CC(C)C)NC(=O)[C@H](Cc1ccccc1)NC(=O)[C@H](CCC(=O)O)NC(=O)[C@H](C)NC(=O)[C@H](CC(C)C)NC(=O)[C@H](CCCNC(=N)N)NC(=O)[C@H](CCC(N)=O)NC(=O)[C@@H](NC(=O)[C@H](C)NC(=O)[C@@H]1CSSC[C@H](NC(=O)[C@H](CCCCN)NC(=O)CC[C@H](NC(=O)CC[C@H](NC(=O)CCCCCCCCCCCCCCCCCCC(=O)O)C(=O)O)C(=O)O)C(=O)N[C@@H](CC(N)=O)C(=O)N[C@@H]([C@@H](C)O)C(=O)N[C@@H](C)C(=O)N[C@@H]([C@@H](C)O)C(=O)N1)[C@@H](C)O)C(=O)N1CCC[C@H]1C(=O)N[C@@H](CO)C(=O)N[C@@H](CO)C(=O)N[C@H](C(=O)N[C@@H](CC(N)=O)C(=O)N[C@H](C(=O)NCC(=O)N[C@@H](CO)C(=O)N[C@@H](CC(N)=O)C(=O)N[C@H](C(=O)N[C@@H](Cc1ccc(O)cc1)C(N)=O)[C@@H](C)O)C(C)C)[C@@H](C)O
notes: also called compound 15
B4: N^ε1-[(4S)--4-carboxy-4-(19-carboxynonadecanoylamino)butanoyl]-[Glu14,Arg17,Pro21,Pro27,Pro37]-h-amylin (peptide)
peptide: K([γGlu-C20 diacid])CNTATCATQRLAEFLRHSSPNFGAIPSSTNVGSNTP-NH2
modifications: disulfide 2-7; N-terminus assumed
SMILES: CC[C@H](C)[C@H](NC(=O)[C@H](C)NC(=O)CNC(=O)[C@H](Cc1ccccc1)NC(=O)[C@H](CC(N)=O)NC(=O)[C@@H]1CCCN1C(=O)[C@H](CO)NC(=O)[C@H](CO)NC(=O)[C@H](Cc1c[nH]cn1)NC(=O)[C@H](CCCNC(=N)N)NC(=O)[C@H](CC(C)C)NC(=O)[C@H](Cc1ccccc1)NC(=O)[C@H](CCC(=O)O)NC(=O)[C@H](C)NC(=O)[C@H](CC(C)C)NC(=O)[C@H](CCCNC(=N)N)NC(=O)[C@H](CCC(N)=O)NC(=O)[C@@H](NC(=O)[C@H](C)NC(=O)[C@@H]1CSSC[C@H](NC(=O)[C@@H](N)CCCCNC(=O)CC[C@H](NC(=O)CCCCCCCCCCCCCCCCCCC(=O)O)C(=O)O)C(=O)N[C@@H](CC(N)=O)C(=O)N[C@@H]([C@@H](C)O)C(=O)N[C@@H](C)C(=O)N[C@@H]([C@@H](C)O)C(=O)N1)[C@@H](C)O)C(=O)N1CCC[C@H]1C(=O)N[C@@H](CO)C(=O)N[C@@H](CO)C(=O)N[C@H](C(=O)N[C@@H](CC(N)=O)C(=O)N[C@H](C(=O)NCC(=O)N[C@@H](CO)C(=O)N[C@@H](CC(N)=O)C(=O)N[C@H](C(=O)N1CCC[C@H]1C(N)=O)[C@@H](C)O)C(C)C)[C@@H](C)O
notes: also called compound 12
B5: N{Alpha-1}-[(4S)-4-carboxy-4-(19-carboxynonadecanoylamino)butanoyl]-[Glu14,Arg17,Pro21,Pro27,Lys34]-h-amylin (peptide)
peptide: {C20 diacid-γGlu}-KCNTATCATQRLAEFLRHSSPNFGAIPSSTNVGKNTY-NH2
modifications: disulfide 2-7
SMILES: CC[C@H](C)[C@H](NC(=O)[C@H](C)NC(=O)CNC(=O)[C@H](Cc1ccccc1)NC(=O)[C@H](CC(N)=O)NC(=O)[C@@H]1CCCN1C(=O)[C@H](CO)NC(=O)[C@H](CO)NC(=O)[C@H](Cc1c[nH]cn1)NC(=O)[C@H](CCCNC(=N)N)NC(=O)[C@H](CC(C)C)NC(=O)[C@H](Cc1ccccc1)NC(=O)[C@H](CCC(=O)O)NC(=O)[C@H](C)NC(=O)[C@H](CC(C)C)NC(=O)[C@H](CCCNC(=N)N)NC(=O)[C@H](CCC(N)=O)NC(=O)[C@@H](NC(=O)[C@H](C)NC(=O)[C@@H]1CSSC[C@H](NC(=O)[C@H](CCCCN)NC(=O)CC[C@H](NC(=O)CCCCCCCCCCCCCCCCCCC(=O)O)C(=O)O)C(=O)N[C@@H](CC(N)=O)C(=O)N[C@@H]([C@@H](C)O)C(=O)N[C@@H](C)C(=O)N[C@@H]([C@@H](C)O)C(=O)N1)[C@@H](C)O)C(=O)N1CCC[C@H]1C(=O)N[C@@H](CO)C(=O)N[C@@H](CO)C(=O)N[C@H](C(=O)N[C@@H](CC(N)=O)C(=O)N[C@H](C(=O)NCC(=O)N[C@@H](CCCCN)C(=O)N[C@@H](CC(N)=O)C(=O)N[C@H](C(=O)N[C@@H](Cc1ccc(O)cc1)C(N)=O)[C@@H](C)O)C(C)C)[C@@H](C)O
notes: also called compound 36
B6: N^α1-[2-[2-[2-[[2-[2-[2-[[(4S)-4-carboxy-4-(19-carboxynonadecanoylamino)butanoyl]amino]ethoxy]ethoxy]acetyl]amino]ethoxy]ethoxy]acetyl]-[Glu14,Arg17,Pro21,Pro27 … (peptide)
peptide: KCNTATCATQRLAEFLRHSSPNFGAIPSSTNVGSNTY
modifications: C20 diacid-gGlu-2xOEG on the alpha amino group of the N-terminal residue (position 1); disulfide bridge Cys2-Cys7; C-terminal amide
notes: also called compound 19
B7: N^α1-[2-[2-[2-[[2-[2-[2-[[(4S)-4-carboxy-4-(19-carboxynonadecanoylamino)butanoyl]amino]ethoxy]ethoxy]acetyl]amino]ethoxy]ethoxy]acetyl]-[Arg17,Pro21,Pro27]-h-am … (peptide)
peptide: B6 peptide with E14N
modifications: alpha-amino group of N-terminal Lys1 acylated with C20 diacid via gGlu-2xOEG linker; disulfide Cys2-Cys7; C-terminal amide
notes: h-amylin derivative; disulfide bridge and C-terminal amide as told for human amylin; also called compound 24
B8: N^α1-[(4S)-4-carboxy-4-(19-carboxynonadecanoylamino)butanoyl]-[Arg17,Pro21,Pro27,His34]-h-amylin (peptide)
peptide: B6 peptide with E14N, S34H
modifications: alpha-amino group of N-terminal Lys1 acylated with C20 diacid via gGlu linker; disulfide Cys2-Cys7; C-terminal amide
notes: h-amylin derivative; disulfide bridge and C-terminal amide as told for human amylin; also called compound 40
B9: N^α1-[(4S)-4-carboxy-4-(19-carboxynonadecanoylamino)butanoyl]-[Arg17,Pro21,Pro27,Arg34]-h-amylin (peptide)
peptide: B6 peptide with E14N, S34R
modifications: alpha-amino group of N-terminal Lys1 acylated with C20 diacid via gGlu linker; disulfide Cys2-Cys7; C-terminal amide
notes: h-amylin derivative; disulfide bridge and C-terminal amide as told for human amylin; also called compound 39
B10: N^α1-[(4S)-4-carboxy-4-(19-carboxynonadecanoylamino)butanoyl]-[Arg17,Pro21,Pro27,Glu35]-h-amylin (peptide)
peptide: B6 peptide with E14N, N35E
modifications: alpha-amino group of N-terminal Lys1 acylated with C20 diacid via gGlu linker; disulfide Cys2-Cys7; C-terminal amide
notes: h-amylin derivative; disulfide bridge and C-terminal amide as told for human amylin; also called compound 23
B11: N^α1-[(4S)-4-carboxy-4-(19-carboxynonadecanoylamino)butanoyl]-[Arg17,Pro21,Pro27,Lys35]-h-amylin (peptide)
peptide: B6 peptide with E14N, N35K
modifications: alpha-amino group of N-terminal Lys1 acylated with C20 diacid via gGlu linker; disulfide Cys2-Cys7; C-terminal amide
notes: h-amylin derivative; disulfide bridge and C-terminal amide as told for human amylin; also called compound 34
B12: N^α1-[2-[2-[2-[[2-[2-[2-[[(4S)-4-carboxy-4-(19-carboxynonadecanoylamino)butanoyl]amino]ethoxy]ethoxy]acetyl]amino]ethoxy]ethoxy]acetyl]-[Glu14,Arg17,Pro21,Pro27 … (peptide)
peptide: B6 peptide
modifications: alpha-amino group of N-terminal Lys1 acylated with C20 diacid via gGlu-2xOEG linker; disulfide Cys2-Cys7; C-terminal amide
notes: h-amylin derivative; disulfide bridge and C-terminal amide as told for human amylin; also called compound 19

Each binder was assayed against T1, rat calcitonin receptor (assay: SPA competition with 125I-calcitonin, membranes of BHK cells with rat calcitonin receptor (Assay VIII)).

Binder	IC50 [nM]
B1	38
B2	159

These binders were tested against T2, human calcitonin receptor (assay: cell-based or functional assay).

Binder	hCTR funct. EC50 [nM]
B3	3.43
B4	0.185
B5	1.28
B6	5.32

These binders were tested against T3, human amylin 3(a) receptor (human …) (assay: cell-based or functional assay).

Binder	Ratio hCT/hAmylin funct.	hAmylin-R funct. EC50 [nM]
B3	8.9	0.386
B4	1.8	0.101
B5	6.8	0.189
B6	17.4	0.307

These binders were tested against T4, human calcitonin receptor (assay: cell-based or functional assay).

Binder	hCTR funct. EC50 [nM]
B7	10
B8	2.68
B9	2.52
B10	3.02
B11	2.62
B12	5.32

Each binder was assayed against T3, human amylin 3(a) receptor (human …) (assay: SPA competition binding, displacement of 125I-rat amylin from membranes of Amylin 3(a)/CRE-luc BHK cells (Assay V)).
Outline: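 SPA beads + BHK amylin 3(a)/CRE-luc membranes, 35 ng/μL final; buffer 50 mM Hepes pH 7.4, 1 mM CaCl2, 5 mM MgCl₂, 0.1% OA, 0.02% Tween20. 120 min, 25° C, shaken; scintillation count. IC₅₀ by one-site binding competition fit, taken as receptor affinity.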

Binder	IC50 [nM]
B3	0.597
B4	0.142
B5	0.403
B6	0.556

Each binder was assayed against T5, rat amylin receptor (rat calcitonin …) (assay: SPA competition with 125I-rat amylin, membranes of BHK cells with rat calcitonin receptor + rat RAMP3 (Assay VI)).

Binder	IC50 [nM]
B1	0.383
B2	0.335

— patent US20140087995A1 (published 2014)
